Data reported in the nanobody polyreactivity screen of Harvey et al. (2022).

Assay: yeast display, Sf9 membrane polyspecificity reagent, FACS + sequencing; frameworks hold sequencing errors
Outline: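 Polyreactivity labels are assigned by the sorting gate from which each nanobody was recovered. The gates were low and high (top ~1%), set on anti-HA fluorescence for expression and streptavidin fluorescence for reagent binding. Before sorting, galactose-induced (36–48 hours) yeast display cells were stained for 1 hour at 4 °C with 10% biotinylated, detergent-solubilized Sf9 membrane reagent.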

Sequence	polyreactivity (PSR sort gate)
QVQLVESGGGLVQAGGSLRLSCAASGITFHYKAMGWYIQAPGKERELVATIRRGGITKYADSVKGRFTISRDNAKNTVYLQMNSLKPEDTAVYYCAAGYYSHGAWFDHWGEGTQVTVSS	low polyreactivity
QVQLVESGGGLVQAGGSLRLSCAASGRTFPYYAMGWYRQATGKERELVAAIRSSGDRTYYADSVKGRFTISRDNAKNTVYLQMNSLKPEDTAVYYCNKVFLRSRRYYWGQGTQVTVSS	high polyreactivity
QVQLVESGGGLVQAGGSLRLSCAASGNTISYYAMGWYRQAPGKERELVAAISANGGSTYYADSVKGRFTISRDNAKNTVYLQMNSLKPEDTAVYYCNRRFLSRNQNEYDYWGQGTQVTVSS	high polyreactivity
QVQLVESGGGLVQAGGSLRLSCAASGRTFGYNAMGWYREAPGKERELVAAITLGGITHYADSVKGRFTISRDNAKNTVYLQMNSLKPEDTAVYYCAKRGPYYNDDEYYWGQGTQVTVSS	low polyreactivity
QVQLVESGGGLVQAGGSLRLSCAASGSTFRWYAMGWYRQAPGKERELVAAITWSGGRTYYADSVKGRFTISRDNAKNTVYLQMNSLKPEDTAVYYCAADRGPEHWYDYYYWGQGTQVTVSS	high polyreactivity
QVQLVESAGGLVQAGGSLRLSCAASGSIFPFYAMRWYRQAPGKERELVATINFSGGSTYYADSVKGRFTISRDNAKNTVYLQMNSLKPEDTAVYYCAASYGAKYIVLYDYWGQGTQVTVSS	low polyreactivity
QVQLVESGGGLVQAGGSLRLSCAASGSTFRKYAMGWYRQAPGKEREFVAAITWSTGTTYYADSVKGRFTISRDNAKNTVYLQMNSLKPEDTAVYYCNAAFWAPQAPCYYYWGQGTQVTVSS	low polyreactivity
QVQLVESGGGLVQAGRSLRLSCAASGFTFRWYGMGWYRQAPGKERELVAAISWSGGTTYYADSVKGRFTISRDNAKKTVYLQMNSLKAEDTAVYYCAASFQTFASRYDYWGQGTQVTVSS	high polyreactivity
QVQLVESGGGLVQAGGSLRLSCAASGSTQRFYAMGWYRQAPGKERELVAVISRGGSTYFADSVKGRFTISRDNAKNTVYLQMNSLKPEDTAVYYCAAYHRTSAARPIYDYWGQGTQVTVSS	low polyreactivity
QVQLVESGGGLVQAGGSLRLSCAASGSIFGVYTMGWYRQAPGKERELVAAITSAGSTYAYSVKGRFTISRDNAKNTVYLQMNSLKPEDTAVYYCNAQSVLLSLRVELREPHEYWGQGTQVTVSS	low polyreactivity
QVQLVESGGGLVQAGGSLRLSCAASGRIIRGNAMGWYRQAPGKERELVAAISVRGGNTRYADSVKGRFTISRDNAKNSVYLQMNSLKPEDTAVYFCKKRSYLPEMEYWGQGSQVTVSS	low polyreactivity
QVQLVESGGGLVQAGGSLRLSCAASGSIFYRNAMGWYRQAPGKERELVAAITRSDGRTYYADSVKGRFTISRDNAKNTVYLLMNSLKPEDTAVYYCAADYSFGYRDFYYWGQGTQVTVSS	low polyreactivity
QVQLVESGGGLVQAGGSLRISCAASGIIFRGNAMGWYRQAPGKERELVAAISSGGGTYYADSVKGRLTISRDNAKNTVYLQMNSLKPEDTAVYYCNRVRYYQYGYDYWGQGTEVTVSS	high polyreactivity
QVQLVETGGGLVQAGGSHRLSCAASGFIIPYYAKGWSRQPPGKERELLAAIDSGGSTNYADSVKGRFTISRDNAKNTVSLQMNRLIPEDTAVYYCAVPSYGVNIWGGFDEYNYWGQGTQVTVSS	high polyreactivity
QVQLVESGGGLVQAGGSLRLSCAASGRTFYTYGMGWYRQAPGKERELVAAITETGDSTYYADSVKGRFTISRDNAKNTVYLQMNSLKPEDTAVYYCAADYRAPLDYWGQGTQVTVSS	low polyreactivity
QVQLVESGGGLVQAGGSLRLSCAASGSIFIANAMGWYRKAPGKERELVAAISRSGSTTYYADSVKGRFTISRDNAKNTVYLQMNSLKPEDTAVNYCNARYSLHSYYWFIYDSWGQGTQVTVSS	low polyreactivity
QVQLVESGGGLVQAGGSLRLSCAASGYIFRYNEMGWYRQAPGKERALVAAIRATGGSTYYADSVKGRFTISRDNAKNTVYLQMNSLKPEDTAVYYCNAGGQGRTYRYYYWGQGTQVTVSS	high polyreactivity
QVHLVESGGGLVQAGGSLRLSCAPSGSTFIRNAILWYRQAPGKDRELVAPISRSGSSTYYADSVKGRFTISRDNAKNTVYLQMNSLKPEDTAVYYCAAETDSRKARVLYDSWGQGTQVTVSS	high polyreactivity
QVQLVESGGGLVQAGGSLRLSCAASGSIFNYYAMGWYRQAPGKERELVAGITTSGGSTYYADSVKGRFTISRDNAKNTVYLQMISLKPEDTAVYYCAAYDYISSTYFLDDYWGQGTQVSVSS	low polyreactivity
QVQLVESGGGLVQAGGSLRLSCAASGRTFWSNAMGWYRQAPGKEREFVAVISRSGSTTYYADSVKGRYTISRDNAKKTVYLQMISLKPEDTAFYNCAADRVRSYFSRYYSTPLDYYWGQGTQVTVSS	high polyreactivity
QVQLVESGGGLVQAGGSLRLSCAASGITFVDYAMGWYRQAPGKEWELVAAITTGGSTNYADSVKGRFTISRDNAKNTVYLQMNRLKPEDTAVYYCNKRPVILYDYWGQGTQVTVSS	low polyreactivity
QVQLVESGGGLVQAGGSLRLSCAASGSIFPKYAMGWYRQAPGKERELVATISYRGGRTYYADSVKGRFTISRDNAKNTVYLQMNSLKPEDTAVYYCAGADYGSYPTYGYFEYYYWGQGTQVTVSS	low polyreactivity

Sequence	polyreactivity (PSR sort gate)
QVQLVESGGGLVQAGGSLRLSCAASGRTYSQNAMGWYRQSPGKERELVAAIRRGGSTNYADSVKGRFTISRDNAKNTVYLQMNSLKPEDSAVYDCAADLRRNGWGFDYWGLGTQVTVSS	high polyreactivity
QVQLVESGGGLVQAGGSLRLSCAASGFIMDNYAMGCYRQAHGKERELVAAISGSGGSTYYADSVKGRFTISRDNAKNTVYLQMNSLKPEDTAVYYCNRDRLLRQYDYWGQGTQVTVSS	high polyreactivity
QVQLVESGGGLVQAGGSLRLSCAASGAIFRYYAMGWYRPAPGKEREFVAAIRGSGGSPYYADSVKGRFTISRDNAKNTVYIQMISLKPEDTAVYYCAARKYSDRQVWYCYWGHGTQVTVSS	high polyreactivity
QVQLVESGGGLVQAGGSLRLSCAASGNIFGYYVMGWYRQAPGKERELVAAITWSAGTTNYADSVKGRFTISRDNAKNTVYLQMNSLKPEDTAVYYCAVTWWYQDYDLTWYLYDYWGQGTQVTVSS	low polyreactivity
QVQLVESGGGLVQAGGSLRLSCAASGSTFRNNAMGWYRQAPGKETELVAAISFSSGRTYYADSVKGRFTISRDYAKNTVYLQMNSLKPEDTAVYYCAALQYRRRPYGAVERYDYWGQGTQVTVSS	high polyreactivity
QVQLVESGGGLVQAGGSLRLSCAASGSIFGYYAMGWYRPAPGKERELVAAISGSAGTTYYADSVKGRFTISRDNAKNTVYLQMNSLKPEDTAVYYCAKYYPYIQADYGYDYWGQGTQVTVSS	low polyreactivity
QVQLVDSGGGLVQAGGSLRLSCAASGSTFSDSPMGGYRQAPGKERELVAGITGGGGTYYADSVKGRFTISRDNAKNTVYLQMNSLKPEDTAVYYCAAGYGRRIRYGSEYDYWGQGTQVTVSS	low polyreactivity
QVQLVESGGGLVQAGGSLRLSCAASGSIFTFNAMGWYRQAPGKERELVAAINWSGTRTYYADSVKGRFTISRDNAKNTVYLQMNSLKPEDTAVYYCNTRPSKRYGYDYWGQGTQVTVSS	high polyreactivity
QVQLVESGGGLVQAGGSLRLSGAASGSTFRRNAMGWSRQAPGKERELVAAISRRGGRTYYADSVKGRFTISRDNAKNTVYLQLNSLKPEDTAVYYCAADVIYSGDYWGQGTQVTVSS	high polyreactivity
QVQLVEYGGGLVQAGGSLRLSCAASGRIFGYYTMGWYRQAPRKERELVAAITSSGGRTYYADSVKGRFTISRDNAKNTVYLQMNSLKPEDTAVYYCNKVTFGYAYWRYDGYDYWGQGTQVTVSS	low polyreactivity
QVQLVESGGGLVQAGGSLRLSCAASGFTFAYYTMGWYRQAPGKERELVAAISWSGSSTYYADSVKGRFTISRDNAKNTVYLQMNSLKPEDTAVYYCAAKGWYVQHFKRGLYNYWGQGTQVTVSS	high polyreactivity
QVQLVESGGGLVQPGGSLRLSCAASGFIFPTNVMGWSRQAPGKEREFVASITWRGGGTYYADSVKGRFRISRDNAKNTVYVQMNSLKPEDTAVYYCAAGRSWSSYWKYDYWGQGTQVTVSS	low polyreactivity
QVQLVESGGGLVQAGGSLRLSCAASGITFGDNAMGWYRQAPGKERELVAAITLSDVDTYADSVKGRFTISRDNAKNTVYLQMNSLKPEDTAVYYCAADYDFFSSKRFDYWGQGTQVTVSS	low polyreactivity
QVQIVESGGCLVQAGGSLRLSCAASGRTFGRNAMGWYRQAPGKERELVAGISIGGGTTYYADSVKGRFTISRDNAKNTVYLQMNSLKPEDTAVYYCAARSWSYLHRYGYWGQGTQVTVSS	high polyreactivity
QVQLVESGGGLVQAGGSLRLSCAASGSTFYPTYAMGWYRQAPGKERELVATITGSGGSTYYADSVKGRFTISRDNAKNTVYLQMNSLKPEDTAVYYCAADRWYSRYTRYGYWGQGTQVTVSS	low polyreactivity
QVQLVESGGGLVQAGGSLRLSCAASGRIFNRYAMGWYRQAPGKERELVASISLSGDSTYYADSVKGRFTISRDNAKNTVYLQMNSLKPEDTAVYYCAVEGLGAAVYAGDRYDYWGQGTQVTVSS	low polyreactivity
QVQLVESGGGLVQAGGSLRLSCAASGRTLPKYVMGWYRQAPGKERELVAAISSSGDSTYYADSVKGRFTISRDNAKNTVYLQMNSLKPEDTAVYYCGKYDLNTYGYWGQGTQVTVSS	low polyreactivity
QVQLVESGGGLVQAGGSLRLSCAASGRTFPYYAMGWYRQAPGKERELVAAITGSGGRTYYADSVKGRFTISRDNAKNTVYLQMNRLKPEDTAVYYCATDRGYYTWRYGRNDYWGQGTLVTVSS	high polyreactivity
QVQLVESGGGLVQAGGSLRISCAASGYTFLAYAMGWYRQAPGKERELVAAISRSGVSTYYADSVKGRFTISRDNAKNTVYLQMYSLKTEYTAVYYFNARSGRQLARYGYWGHGTQVTVSS	high polyreactivity
QVQLVESGGGLVQAGGSLRLSCAASGSTFLHYAMGWYRQAPGKERELVAAISFSGVRTYYADSVKGRFTISRDNAKNTVYLQMNSLKPEDTAVYYCAADGHHADYDYWGQGTQVTVSS	low polyreactivity
QVQLVESGGGLVQAGGSLRLSCAASGFIFVRYAMGWYRQAPGTERELVASITRSGGSTYYADSVKGRFTISRDNAKNTVYLQLNSLKPEDSAVYYCAASYYRSRGSTYGYWGQGTQVTVSS	high polyreactivity
